Experimental data published in FireProtDB (doi:10.1021/bi00197a024).

Conditions: Saccharomyces cerevisiae (strain ATCC 204508 / S288c), Thermal, DSC, Sodium phosphate 0.1 M, reversible: yes

Cytochrome c isoform 1 wild type, P00044, sequence (P00044 whole entry, canonical isoform): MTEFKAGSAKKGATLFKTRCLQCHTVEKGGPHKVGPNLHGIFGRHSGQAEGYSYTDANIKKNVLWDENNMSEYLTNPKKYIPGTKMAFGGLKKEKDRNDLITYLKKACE
Cytochrome c isoform 1 C108A, P00044, sequence (P00044 whole entry C108A, canonical isoform): as the sequence (P00044 whole entry, canonical isoform) above, with C108A counted along it

Substance	Tm (pH 5, structure 1YCC)	unfolding enthalpy (calorimetric) (pH 5, structure 1YCC)	unfolding enthalpy (van 't Hoff) (pH 5, structure 1YCC)	Tm (pH 6, structure 1YCC)	unfolding enthalpy (calorimetric) (pH 6, structure 1YCC)	unfolding enthalpy (van 't Hoff) (pH 6, structure 1YCC)	Tm (pH 5)	unfolding enthalpy (calorimetric) (pH 5)	unfolding enthalpy (van 't Hoff) (pH 5)	Tm (pH 6)	unfolding enthalpy (calorimetric) (pH 6)	unfolding enthalpy (van 't Hoff) (pH 6)
Cytochrome c isoform 1 C108A, P00044	55.5 °C	68.9 kcal/mol	99.2 kcal/mol	56.2 °C	69.9 kcal/mol	104 kcal/mol	–	–	–	–	–	–
Cytochrome c isoform 1 wild type, P00044	–	–	–	–	–	–	47.4 °C	58.3 kcal/mol	82.2 kcal/mol	50.7 °C	64.5 kcal/mol	92.2 kcal/mol
